{"source": "paper PMC6385258", "key": {"[1]": {"target": "EGF receptor (EGFR) (human (endogenous in MDA-MB-231, MCF-7, MDA-MB-468)) (UniProt P00533)", "assay": "flow cytometry on cells; MDA-MB-231 cells in suspension; QD-EGF 0.06-120 nM (EGF:QD = 0.33) or dye-EGF 0.02-40 nM; 4 °C, 4 h with rocking; PBS with 0.5% BSA; nonspecific binding measured with 2 µM unlabeled EGF and subtracted; one-site fit"}, "[2]": {"target": "EGF receptor (EGFR) (human (endogenous in MDA-MB-231, MCF-7, MDA-MB-468)) (UniProt P00533)", "assay": "single-molecule counting of quantum dots by calibrated 3D deconvolution microscopy (QDC-3DM); MDA-MB-231 cells on fibronectin micropatterns; 1 nM QD744-EGF pulse for 5 min, washed, kept in serum-free medium; counted 10 and 30 min after the start of the pulse; also with gefitinib 0-5.1 µM"}, "[3]": {"target": "EGF receptor (EGFR) (human (endogenous in MDA-MB-231, MCF-7, MDA-MB-468)) (UniProt P00533)", "assay": "single-molecule counting of quantum dots by calibrated 3D deconvolution microscopy (QDC-3DM); unpatterned MDA-MB-468 cells (high EGFR expression); 1 nM QD-EGF for 5 min on ice; washed and fixed"}, "[4]": {"target": "EGF receptor (EGFR) (human (endogenous in MDA-MB-231, MCF-7, MDA-MB-468)) (UniProt P00533)", "assay": "single-molecule counting of quantum dots by calibrated 3D deconvolution microscopy (QDC-3DM); unpatterned MDA-MB-231 cells; QD-EGF at 0.1, 1, 10 or 100 nM for 5 min on ice in serum-free DMEM with 0.8% BSA; washed and fixed"}}, "data": [{"substance": "EGF conjugated to a single tetramethylrhodamine dye (ligand)", "values": [{"measurement": "Kd", "setting": "[1]", "result": 3.2, "unit": "nM"}]}, {"substance": "QD-EGF conjugate: epidermal growth factor with a single N-terminal biotin bound to a streptavidin-conjugated quantum dot (ligand)", "values": [{"measurement": "EGF per cell (1 nM QD-EGF)", "setting": "[2]", "result": 1270, "unit": "EGF per cell"}, {"measurement": "QD-EGF per cell 30 min after the start of a 5 min pulse", "setting": "[2]", "result": 800, "unit": "per cell"}, {"measurement": "mean EGF bound per cell (1 nM QD-EGF)", "setting": "[3]", "result": 922, "unit": "EGF per cell"}, {"measurement": "QD-EGF counts per cell (0.1, 1 and 10 nM QD-EGF)", "setting": "[4]", "result": "0 to 4000", "unit": "per cell"}, {"measurement": "mean EGF bound per cell (1 nM QD-EGF)", "setting": "[4]", "result": 80, "unit": "EGF per cell"}]}]}
